In patent US20200131274A1 (CRESCENDO BIOLOGICS, published 2020):
Where two headings read alike, the source gives them in different places.

What was measured:
[1] = biological target: T1, human prostate specific membrane antigen (PSMA), full-length, on cells (human, UniProt Q04609 1-750); test: FMAT direct cell binding, DU145 PSMA cells
T1 construct: also called huPSMA; human PSMA

[2] = biological target: T1, human prostate specific membrane …; test: cell-based or functional assay
[3] = biological target: T2, recombinant human PSMA (R&D, cat. no. 4234-ZN) (human, UniProt Q04609 44-750); test: Octet RED384 BLI, PSMA on sensor, VH series from 0.375 ug/ml
T2 construct: Bought protein; also called rhPSMA; Recombinant PMSA

[4] = biological target: T3, cynomolgus PSMA, full-length, on CHO cells (cynomolgus, UniProt A0A2K5VNZ0 1-750); test: cell-based or functional assay
[5] = biological target: T1, human prostate specific membrane …; test: cell-based or functional assay; remark: listed apart in the source
[6] = biological target: T1, human prostate specific membrane …; test: FMAT direct cell binding, LNCap cells
[7] = biological target: T1, human prostate specific membrane …; test: FMAT direct cell binding, CHO human PSMA cells
[8] = biological target: T3, cynomolgus PSMA, full-length, on CHO …; test: FMAT direct cell binding, CHO cyno PSMA cells
[9] = biological target: T1, human prostate specific membrane …; test: FMAT cell binding, huPSMA CHO 1A10 cells, after 0 days in human serum at 37 C
[10] = biological target: T1, human prostate specific membrane …; test: FMAT cell binding, huPSMA CHO 1A10 cells, after 4 days in human serum at 37 C
[11] = biological target: T1, human prostate specific membrane …; test: FMAT cell binding, huPSMA CHO 1A10 cells, after 7 days in human serum at 37 C
[12] = biological target: T1, human prostate specific membrane …; test: FMAT cell binding, huPSMA CHO 1A10 cells, after 1 day in human serum at 37 C
[13] = biological target: T2, recombinant human PSMA (R&D, cat. no. …); test: Octet RED384 BLI, PSMA on sensor, VH series from 0.375 ug/ml; remark: listed apart in the source
[14] = biological target: T1, human prostate specific membrane …; test: cell-based or functional assay; remark: listed apart in the source
[15] = biological target: T1, human prostate specific membrane …; test: cell-based or functional assay; remark: listed apart in the source
[16] = biological target: T1, human prostate specific membrane …; test: FMAT direct cell binding, human PSMA-CHO cells

T2 sequence (Q04609 44-750 limits assumed): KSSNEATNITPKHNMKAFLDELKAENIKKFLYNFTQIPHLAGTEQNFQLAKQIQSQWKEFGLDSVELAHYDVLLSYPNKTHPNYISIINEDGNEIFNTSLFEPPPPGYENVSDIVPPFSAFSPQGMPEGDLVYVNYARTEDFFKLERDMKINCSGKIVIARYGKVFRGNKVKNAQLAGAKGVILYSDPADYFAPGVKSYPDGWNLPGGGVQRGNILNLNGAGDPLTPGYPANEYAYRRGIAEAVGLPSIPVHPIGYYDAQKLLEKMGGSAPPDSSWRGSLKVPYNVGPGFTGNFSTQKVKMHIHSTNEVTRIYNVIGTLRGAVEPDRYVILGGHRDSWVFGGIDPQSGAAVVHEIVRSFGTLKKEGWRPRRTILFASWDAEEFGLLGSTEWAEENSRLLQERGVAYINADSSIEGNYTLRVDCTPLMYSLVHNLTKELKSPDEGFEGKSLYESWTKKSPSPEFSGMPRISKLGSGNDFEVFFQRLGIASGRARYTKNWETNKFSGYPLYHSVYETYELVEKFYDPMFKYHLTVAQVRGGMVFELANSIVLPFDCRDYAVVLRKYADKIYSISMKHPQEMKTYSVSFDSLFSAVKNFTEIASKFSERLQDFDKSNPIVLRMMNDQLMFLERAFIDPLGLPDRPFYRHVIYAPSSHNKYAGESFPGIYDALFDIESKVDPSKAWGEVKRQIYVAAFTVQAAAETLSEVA
T1 sequence (Q04609 whole entry): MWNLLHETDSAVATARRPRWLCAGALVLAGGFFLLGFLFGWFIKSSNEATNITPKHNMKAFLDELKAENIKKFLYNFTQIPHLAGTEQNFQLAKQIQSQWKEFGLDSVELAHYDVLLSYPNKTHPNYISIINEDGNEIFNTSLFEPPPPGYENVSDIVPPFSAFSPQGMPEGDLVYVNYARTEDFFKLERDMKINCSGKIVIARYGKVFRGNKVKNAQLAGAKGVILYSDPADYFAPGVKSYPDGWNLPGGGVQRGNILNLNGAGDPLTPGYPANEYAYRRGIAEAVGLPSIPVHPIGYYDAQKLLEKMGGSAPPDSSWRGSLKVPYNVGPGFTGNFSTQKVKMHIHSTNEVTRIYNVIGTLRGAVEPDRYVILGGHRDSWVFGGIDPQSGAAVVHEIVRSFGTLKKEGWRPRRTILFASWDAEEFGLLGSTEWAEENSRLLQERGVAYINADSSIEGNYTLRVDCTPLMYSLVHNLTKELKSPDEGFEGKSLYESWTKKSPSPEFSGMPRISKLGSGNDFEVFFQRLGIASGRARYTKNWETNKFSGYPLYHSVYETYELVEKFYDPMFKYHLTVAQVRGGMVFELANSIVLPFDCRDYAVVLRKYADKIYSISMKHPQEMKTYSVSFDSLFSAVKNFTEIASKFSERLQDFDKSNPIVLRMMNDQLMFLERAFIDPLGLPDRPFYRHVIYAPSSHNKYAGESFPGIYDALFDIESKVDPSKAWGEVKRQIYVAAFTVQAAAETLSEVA

B1: single VH domain antibody 1.10 (VHH)
VHH: EVQLLESGGGLVQPGGSLRLSCAASGFSFSSYALSWVRQAPGKGLEWVSSIGENNATTDYADFVKGRFTISRDNSKNTLYLQMNSLRVEDTAVYYCVKDGVHWGQGTLVTVSS
notes: Human single VH domain antibody (Humabody)
- EC50 [1]: 0.067 nM
- pHrodo Green internalization assay, human PSMA Average EC50 (M) [2]: 6.4e-10 M
- Kd [3]: 0.67 nM
- koff [3]: 0.000418 s⁻¹
- His-ZAP cell killing, cyno PSMA EC50 [4]: 1300 pM
- His-ZAP cell killing, human PSMA Average EC50 [5]: 21 pM
- EC50 [6]: 0.133 nM
- EC50 [7]: 0.0718 nM
- EC50 [8]: 0.152 nM

B2: single VH domain antibody 1.14 (VHH)
VHH: EVQLLESGGGLVQPGGSLRLSCAASGFSFSSYALSWVRQAPGKGLEWVSSIGENNATTDYADVVKGRFTISRDNSKNTLYLQMNSLRVEDTAVYYCVKDGVHWGQGTLVTVSS
notes: as for B1
- EC50 [1]: 0.052 nM
- pHrodo Green internalization assay, human PSMA Average EC50 (M) [2]: 4.4e-10 M
- Kd [3]: 0.46 nM
- koff [3]: 0.000335 s⁻¹
- His-ZAP cell killing, cyno PSMA EC50 [4]: 790 pM
- His-ZAP cell killing, human PSMA Average EC50 [5]: 17 pM
- EC50 [6]: 0.0833 nM
- EC50 [7]: 0.0588 nM
- EC50 [8]: 0.145 nM

B3: single VH domain antibody 1.11 (VHH)
VHH: EVQLLESGGGLVQPGGSLRLSCAASGFSFSSYALSWVRQAPGKGLEWVSSIGENNDTTDYADNVKGRFTISRDNSKNTLYLQMNSLRVEDTAVYYCVKDGVHWGQGTLVTVSS
notes: as for B1
- EC50 [9]: 0.234 nM
- EC50 [1]: 0.076 nM
- pHrodo Green internalization assay, human PSMA Average EC50 (M) [2]: 3.7e-10 M
- Kd [3]: 0.8 nM
- koff [3]: 0.000495 s⁻¹
- His-ZAP cell killing, cyno PSMA EC50 [4]: 410 pM
- His-ZAP cell killing, human PSMA Average EC50 [5]: 14 pM
- EC50 [6]: 0.119 nM
- EC50 [7]: 0.0863 nM
- EC50 [10]: 0.227 nM
- EC50 [11]: 0.278 nM
- EC50 [12]: 0.208 nM
- EC50 [8]: 0.217 nM

B4: single VH domain antibody 2.12 (VHH)
VHH: EVQLVESGGGVVQPGRSLRLSCAASGFSFSGYGMHWVRQAPGKGLEWVAYISYDKSNKYYADKVKGRFTISRDNSKNTLYLQMNSLRAEDTAVYYCAKDPAWGLRLGESSSYDFDIWGQGTMVTVSS
notes: Human single VH domain antibody (Humabody); C-terminal His tag, residues not tied
- Kd [13]: 1.56 nM
- koff [13]: 0.00157 s⁻¹
- pHrodo Green internalization assay, human PSMA Average EC50 (M) [2]: 5.3e-10 M
- His-ZAP cell killing, cyno PSMA EC50 [4]: 91 pM
- His-ZAP cell killing, human PSMA Average EC50 [5]: 16 pM

B5: single VH domain antibody 2.13 (VHH)
VHH: EVQLVESGGGVVQPGRSLRLSCAASGFSFSGYGLHWVRQAPGKGLEWVAYISYDASNKYYADNVKGRFTISRDNSKNTLYLQMNSLRAEDTAVYYCAKDPAWGLRLGESSSYDFDIWGQGTMVTVSS
notes: as for B4
- Kd [13]: 0.99 nM
- koff [13]: 0.000743 s⁻¹
- pHrodo Green internalization assay, human PSMA Average EC50 (M) [2]: 5.8e-10 M
- His-ZAP cell killing, cyno PSMA EC50 [4]: 80 pM
- His-ZAP cell killing, human PSMA Average EC50 [5]: 27 pM

B6: HiPEG B-2-A-His6 val-cit-PAB-MMAE (bispecific antibody)
chain: EVQLLESGGGLVQPGGSLRLSCAASGFSFSSYAMSWVRQAPGKGLEWVSSIGENDGTTDYADSVKGRFTISRDNSKSMLYLQMNSLRVEDTAVYYCVKDGVHWGQGTLVTVSSGGGGSGGGGSGGGGSGGGGSGGGGSGGGGSEVQLVESGGGVVQPGRSLRLSCAASGFSFSGYGMHWVRQAPGKGLEWVAYISYDGSNKYYADSVKGRFTISRDNSKNTLYLQMNSLRAEDTAVYYCAKDPAWGLRLGESSSYDFDIWGQGTMVTVSS
modifications: HiPEG val-cit-PAB-MMAE attached via the C-terminal His6-tag, DAR 1
- IC50 Toxin (nM), DU145 PSMA cells, 48 h [14]: 0.15 nM
- Mean IC50, cytotoxicity on DU145 PSMA cells, 48 h [14]: 0.15 nM
- Mean Max % Cell kill, DU145 PSMA cells, 48 h [14]: 79%
- IC50 (nM), PSMA-DU145 cytotoxicity assay (72 h) [15]: 0.27 nM
- IC50 (toxin) (nM), PSMA-DU145 cytotoxicity assay (72 h) [15]: 0.27 nM

B7: 1.18-6GS-2.22 (bispecific antibody)
chain: EVQLLESGGGLVQPGGSLRLSCAASGFSFSSYALSWVRQAPGKGLEWVSSIGENNATTDYAASVKGRFTISRDNSKNTLYLQMNSLRVEDTAVYYCVKDGVHWGQGTLVTVSSGGGGSGGGGSGGGGSGGGGSGGGGSGGGGSEVQLVESGGGVVQPGRSLRLSCAASGFSFSGYGTHWVRQAPGKGLEWVAYISYDGSNKYYAAPVKGRFTISRDNSKNTLYLQMNSLRAEDTAVYYCAKDAAWGLRLGESSSYDFDIWGQGTMVTVSS
notes: linker (G4S)6
- EC50 [16]: 0.196 nM
- His-ZAP cell killing, cyno PSMA Average EC50 [4]: 14 pM
- His-ZAP cell killing, human PSMA Average EC50 [5]: 15 pM

B8: 1.11-6GS-2.22 (bispecific antibody)
chain: EVQLLESGGGLVQPGGSLRLSCAASGFSFSSYALSWVRQAPGKGLEWVSSIGENNDTTDYADNVKGRFTISRDNSKNTLYLQMNSLRVEDTAVYYCVKDGVHWGQGTLVTVSSGGGGSGGGGSGGGGSGGGGSGGGGSGGGGSEVQLVESGGGVVQPGRSLRLSCAASGFSFSGYGTHWVRQAPGKGLEWVAYISYDGSNKYYAAPVKGRFTISRDNSKNTLYLQMNSLRAEDTAVYYCAKDAAWGLRLGESSSYDFDIWGQGTMVTVSS
notes: linker (G4S)6; also called 1.11-2.22; 1.11-6GS-2.22His
- EC50 [16]: 0.219 nM
- His-ZAP cell killing, cyno PSMA Average EC50 [4]: 9.5 pM
- His-ZAP cell killing, human PSMA Average EC50 [5]: 10 pM

B9: 1.18-6GS-2.1 (bispecific antibody)
chain: EVQLLESGGGLVQPGGSLRLSCAASGFSFSSYALSWVRQAPGKGLEWVSSIGENNATTDYAASVKGRFTISRDNSKNTLYLQMNSLRVEDTAVYYCVKDGVHWGQGTLVTVSSGGGGSGGGGSGGGGSGGGGSGGGGSGGGGSEVQLVESGGGVVQPGRSLRLSCAASGFSFSGYGMHWVRQAPGKGLEWVAYISYDGSNKYYADSVKGRFTISRDNSKNTLYLQMNSLRAEDTAVYYCAKDPAWGLRLGESSSYDFDIWGQGTMVTVSS
notes: linker (G4S)6
- EC50 [16]: 0.294 nM
- His-ZAP cell killing, cyno PSMA Average EC50 [4]: 5.8 pM
- His-ZAP cell killing, human PSMA Average EC50 [5]: 5.7 pM

B10: 1.18-6GS-2.17 (bispecific antibody)
chain: EVQLLESGGGLVQPGGSLRLSCAASGFSFSSYALSWVRQAPGKGLEWVSSIGENNATTDYAASVKGRFTISRDNSKNTLYLQMNSLRVEDTAVYYCVKDGVHWGQGTLVTVSSGGGGSGGGGSGGGGSGGGGSGGGGSGGGGSEVQLVESGGGVVQPGRSLRLSCAASGFSFSGYGMHWVRQAPGKGLEWVAYISYDASNKYYADNVKGRFTISRDNSKNTLYLQMNSLRAEDTAVYYCAKDPAWGLRLGESSSYDFDIWGQGTMVTVSS
notes: linker (G4S)6
- EC50 [16]: 0.278 nM
- His-ZAP cell killing, cyno PSMA Average EC50 [4]: 5.6 pM
- His-ZAP cell killing, human PSMA Average EC50 [5]: 12 pM

B11: 1.16-6GS-2.22 (bispecific antibody)
chain: EVQLLESGGGLVQPGGSLRLSCAASGFSFSSYALSWVRQAPGKGLEWVSSIGENNHTTDYADTVKGRFTISRDNSKNTLYLQMNSLRVEDTAVYYCVKDGVHWGQGTLVTVSSGGGGSGGGGSGGGGSGGGGSGGGGSGGGGSEVQLVESGGGVVQPGRSLRLSCAASGFSFSGYGTHWVRQAPGKGLEWVAYISYDGSNKYYAAPVKGRFTISRDNSKNTLYLQMNSLRAEDTAVYYCAKDAAWGLRLGESSSYDFDIWGQGTMVTVSS
notes: linker (G4S)6
- EC50 [16]: 0.225 nM
- His-ZAP cell killing, cyno PSMA Average EC50 [4]: 11 pM
- His-ZAP cell killing, human PSMA Average EC50 [5]: 20 pM

B12: HiPEG D-His6 val-cit-PAB-MMAE (VHH)
VHH: EVQLLESGGGLVQPGGSLRLSCAASGFRISDEDMGWVRQAPGKGLEWVSSIYGPSGSTYYADSVKGRFTISRDNSKNTLYLQMNSLRAEDTAVYYCASALEPLSEPLGFWGQGTLVTVSS
modifications: HiPEG val-cit-PAB-MMAE attached via the C-terminal His6-tag
- Mean IC50, cytotoxicity on DU145 PSMA cells, 48 h [14]: > 300 nM
- IC50 (nM), PSMA-DU145 cytotoxicity assay (72 h) [15]: > 100 nM
- IC50 (toxin) (nM), PSMA-DU145 cytotoxicity assay (72 h) [15]: > 100 nM
